{
  "source": "the nanobody polyreactivity screen of Harvey et al. (2022)",
  "data": [
    {"assay": "yeast display, Sf9 membrane polyspecificity reagent, FACS + sequencing; frameworks hold sequencing errors", "how_it_was_run": "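After 36–48 hours of galactose induction, yeast (Saccharomyces cerevisiae BJ5465) displaying a synthetic nanobody library were stained at 4 °C for 1 hour with 10% biotinylated, detergent-solubilized Sf9 membrane reagent. Streptavidin microbeads enriched the stained cells before FACS sorting into low and high (top ~1%) gates on anti-HA and streptavidin fluorescence. Each clone's polyreactivity label reflects its gate of origin.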", "values": [
      {"sequence": "QVQLVESGGGLVQAGGSHRLSCAASGRILPGYAMGWYRPAPGKERELVAAITTGGSTYYADSVKGRFTISRDNAKNTVYLQMNSLKPEDTAVYYCAKLYSYVGWGGQFDYWGQGTQVTVSS", "polyreactivity (PSR sort gate)": "low polyreactivity"},
      {"sequence": "QVQLVESGGGLVQAGGSHRLSCAASGRILYRNVMGWYRQAHGKERELVAGISFTGGSTYYADSVKRRFTISRDNAKNTVYLQMNSLKPEDTAVYYCAATYSSYWARYYYWGQGTPVTVSS", "polyreactivity (PSR sort gate)": "high polyreactivity"},
      {"sequence": "QVQLVESGGGLVQAGGSHRLSCAASGRTFANYAMGWYRQAPGKERELVAAITSGGRTYYADSVKGRFTISRDNAKNTVYLQMNSLKPEDSAVYYCAADYTYDYQNDYWGQGTQVTVSS", "polyreactivity (PSR sort gate)": "high polyreactivity"},
      {"sequence": "QVQLVESGGGLVQAGGSHRLSCAASGSIFHRYAMGWYRQAPGKERELVAGITWSGDSTYYADSVKGRFTISRDNAKNTVYLEMNSLKPEDTGVYYCAKRAPRHYKGVPAAWFGYWGQGTQVTVSS", "polyreactivity (PSR sort gate)": "low polyreactivity"},
      {"sequence": "QVQLVESGGGLVQAGGSHRLSCAASGSIFKRNAMRSYRQAPGKERELVAAISRSGGSTYYADSVKGRFTISRDFAKNTVYLQMNSLKPEDTAVYYCDARRKLGYGSENDYWGQGTQVTVSS", "polyreactivity (PSR sort gate)": "high polyreactivity"},
      {"sequence": "QVQLVESGGGLVQAGGSHRLSCAASGSIFRGYAMGWNRHAPRKERELVASITWSSGSTYYADSVKGRFTISRDNAKITVYLQMNSLKPEDTAVYDCAADVEYWSYEFNYWGQGTQVTVSS", "polyreactivity (PSR sort gate)": "low polyreactivity"},
      {"sequence": "QVQLVESGGGLVQAGGSHRLSCAASGSIFRSNTMGWYRQAPGKERELVAAITWRRGSTYYADSVKGRFTISRDNAKNTVYLQMNSLKPEDTAVYDCNALYVSRDDYWGQGTQVTVSS", "polyreactivity (PSR sort gate)": "high polyreactivity"},
      {"sequence": "QVQLVESGGGLVQAGGSHRLSCAASGSIFSWYAMGWYRQAPGKVRELVAAITWTRGSTYYADSVKGRFTISRDTANNTVYLQMKSLKPDDSAVYYCAARRVVYRYYWYSAYVYWGQGTQVTVSS", "polyreactivity (PSR sort gate)": "high polyreactivity"},
      {"sequence": "QVQLVESGGGLVQAGGSHRLSCAASGSIFTRNVMGWYRQAPGKERELVAAITSAGSTYYADSVKGRFTISRDNAKNNVYLQMTSLNPEDTAVYNCDAKVYYPYLFTSYDYWGQGTQVTVSS", "polyreactivity (PSR sort gate)": "high polyreactivity"},
      {"sequence": "QVQLVESGGGLVQAGGSHRLSCAASGSIFWSYAMGWYRQAPGKARELVASISRRGGSTSYADSVKGRFTISRDNAKNTVYLQMNSLKPEDTAVYYCNAYGRQNHYYWGQGTQVTVSS", "polyreactivity (PSR sort gate)": "high polyreactivity"},
      {"sequence": "QVQLVESGGGLVQAGGSHRLSCAASGSTFEIYAMGWYRQAPGKERELVAAISSGGSTNYADSVKGRFTISRDNAKNSVYLQMNSLKPEDTAVYYCVYAIQFDYWGQGTQVTVSS", "polyreactivity (PSR sort gate)": "low polyreactivity"},
      {"sequence": "QVQLVESGGGLVQAGGSHRLSCAASGSTFEYYAMGWYRQAPGKERELVAAITTSGGITYYADSVKGRFTISRDNAKNTVYLQMNSLKPEDTAVYYCNADAVPFPTLVTYLYDYWGQGTQVTVSS", "polyreactivity (PSR sort gate)": "low polyreactivity"},
      {"sequence": "QVQLVESGGGLVQAGGSHRLSCAASGSTFGSNAMGWYRQAPGKERELVAARTIGGSTNYADSVKGRFTISRDNAKNTVYLEMTSLKPEETAVYYCNADPQQSKLWTYFFGFPGYYWGQGTQVTVSS", "polyreactivity (PSR sort gate)": "low polyreactivity"},
      {"sequence": "QVQLVESGGGLVQAGGSHRLSCAASGSTFLINAMGWYRQAPGKERELVAAISRDGSTNYADSVKGRFTISRDNAKNTVYLQMNSLKPDDTAVYYCAADEQAYYVRRFDYWGEGTQVTVSS", "polyreactivity (PSR sort gate)": "low polyreactivity"},
      {"sequence": "QVQLVESGGGLVQAGGSHRLSCAASGSTFWGYTMRWYRQAPGKERELVAAITRSSGRTYYADSVKGRFTISRDNAKITVYLQMNSLKPEETAVYYCNAAAVGRRTWSPYDYWGQGTQVTVSS", "polyreactivity (PSR sort gate)": "high polyreactivity"},
      {"sequence": "QVQLVESGGGLVQAGGSHRLSCAASGSTIAGNAMGWYRQAPGKERELVAVITRGGSTNYADSVKGRFTISRDNAKNTVYLQLNSLKPEDTAVYYCARYRFLLDYWGGGYYWGQGTQVTVSS", "polyreactivity (PSR sort gate)": "high polyreactivity"},
      {"sequence": "QVQLVESGGGLVQAGGSHRLSCAASGYIFQWNAMGWYRQAPGKERELVATISRRGGSTYYADSVKGRFTISRDNAKNTVYLQMNSLKPEDTAVYYCNAVFGSYKDYGYWGQGTQVTVSS", "polyreactivity (PSR sort gate)": "low polyreactivity"},
      {"sequence": "QVQLVESGGGLVQAGGSHRLSCAATGFTFSYYSMGWYRQAPGKERELVAAITSSAGSTYYADTVKGRFTISRDNAKNTVYLQMNSLKPEDTAVYYCNAVYSKLNGGYDYWGQGTQVTVSS", "polyreactivity (PSR sort gate)": "low polyreactivity"},
      {"sequence": "QVQLVESGGGLVQAGGSHRLSCASSGRTLLAYAMGWYIQAPGKEREFVDAISSRGVRTYYADSVKGRFTISRDNANNTVYLQMNSLKPEDTAVYYCASRGTKSIKDVPGIRYGYWGQGTQVTVSS", "polyreactivity (PSR sort gate)": "high polyreactivity"},
      {"sequence": "QVQLVESGGGLVQAGGSHRLSCSASGLTFSYYAMGGYRQEPGKERELVAAITRTGDRTYYADSVKGRFTISRDNAKNTVYLQMNSLKPEDTAVYYCAAKWRIVGSRQWYDYWGQGTQVTVSS", "polyreactivity (PSR sort gate)": "high polyreactivity"},
      {"sequence": "QVQLVESGGGLVQAGGSHRLSCSASGSIIFYYAMGWDRQAPGKEREFVAAITRSGVRTYYADSVKGRFTISRDNAKNTVYLQMNSLKPEDTAVYYCNADYGFYRPVLMGYWGQGTQVTVSS", "polyreactivity (PSR sort gate)": "low polyreactivity"}
    ]}
  ]
}
